This note sets out measurements from patent publication US20160102129A1 (Novo Nordisk, published 2016).

*1 amine or outer side, *2 acyl side, *3 side chain or, on linkers, in order; H or OH if unused. Side-chain parts run from the residue outwards. [ ]: non-standard residue; d: D form. The star is where a group is joined. C18 diacid = O=C(O)CCCCCCCCCCCCCCCCC(=O)*; γGlu = O=C(O)[C@H](CCC(=O)[*:2])N[*:1]; Desaminohistidyl = O=C(CCc1c[nH]cn1)*; Ac4c = NC1(C(=O)O)CCC1; Aib = CC(C)(N)C(=O)O

Experiment [1] has as its target T1, human glucagon receptor (human, UniProt P47871 26-477).
T1 construct: whole, on cells; reporter assay on whole cells
Briefly: SPA displacement of [125I]-glucagon from human glucagon receptor BHK membranes.

Experiment [2] concerns the target T2, human GLP-1 receptor (human, UniProt P43220 24-463).
T2 construct: whole, on cells; reporter assay on whole cells
Briefly: SPA displacement of [125I]GLP-1(7-36)NH2 from hGLP-1R BHK membranes. Background: Displacement assays read how much labelled ligand stays bound in the presence of the test substance.

Experiment [3] deals with T1, human glucagon receptor. Briefly: cell-based or functional assay.
Experiment [4] addresses T2, human GLP-1 receptor. Briefly: cell-based or functional assay.

T1 sequence (P47871 26-477): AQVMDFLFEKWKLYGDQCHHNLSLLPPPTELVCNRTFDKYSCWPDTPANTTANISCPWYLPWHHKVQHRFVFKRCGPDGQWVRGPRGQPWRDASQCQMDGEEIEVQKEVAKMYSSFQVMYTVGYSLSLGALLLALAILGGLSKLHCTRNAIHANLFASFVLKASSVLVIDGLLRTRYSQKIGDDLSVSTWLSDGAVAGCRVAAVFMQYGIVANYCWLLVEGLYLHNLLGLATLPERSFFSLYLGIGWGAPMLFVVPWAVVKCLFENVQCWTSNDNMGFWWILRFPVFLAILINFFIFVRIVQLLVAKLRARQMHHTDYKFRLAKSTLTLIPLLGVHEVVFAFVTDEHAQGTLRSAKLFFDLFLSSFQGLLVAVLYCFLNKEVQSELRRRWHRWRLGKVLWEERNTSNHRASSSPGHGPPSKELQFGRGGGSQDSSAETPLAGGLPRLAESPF

B1: N^ε34-[2-[[(2S)-2-[[(4S)-4-carboxy-4-[[(4S)-4-carboxy-4-(17-carboxyheptadecanoylamino)butanoyl]amino]butanoyl]amino]-3-hydroxypropanoyl]amino]acetyl]-[Imp7,Aib8 … (peptide)
peptide: [Desaminohistidyl][Aib]HGTFTSDVSKYLEEQAAREFIAWLLK([Gly-Ser-γGlu-γGlu-C18 diacid])T-NH2
SMILES: CC[C@H](C)[C@H](NC(=O)[C@H](Cc1ccccc1)NC(=O)[C@H](CCC(=O)O)NC(=O)[C@H](CCCNC(=N)N)NC(=O)[C@H](C)NC(=O)[C@H](C)NC(=O)[C@H](CCC(N)=O)NC(=O)[C@H](CCC(=O)O)NC(=O)[C@H](CCC(=O)O)NC(=O)[C@H](CC(C)C)NC(=O)[C@H](Cc1ccc(O)cc1)NC(=O)[C@H](CCCCN)NC(=O)[C@H](CO)NC(=O)[C@@H](NC(=O)[C@H](CC(=O)O)NC(=O)[C@H](CO)NC(=O)[C@@H](NC(=O)[C@H](Cc1ccccc1)NC(=O)[C@@H](NC(=O)CNC(=O)[C@H](Cc1c[nH]cn1)NC(=O)C(C)(C)NC(=O)CCc1c[nH]cn1)[C@@H](C)O)[C@@H](C)O)C(C)C)C(=O)N[C@@H](C)C(=O)N[C@@H](Cc1c[nH]c2ccccc12)C(=O)N[C@@H](CC(C)C)C(=O)N[C@@H](CC(C)C)C(=O)N[C@@H](CCCCNC(=O)CNC(=O)[C@H](CO)NC(=O)CC[C@H](NC(=O)CC[C@H](NC(=O)CCCCCCCCCCCCCCCCC(=O)O)C(=O)O)C(=O)O)C(=O)N[C@H](C(N)=O)[C@@H](C)O
With B1, the results for the IC50 in the experiment with human glucagon receptor [1] and with human GLP-1 receptor [2] were 4.3 nM and 0.2 nM, respectively. For the same molecule, the “EC50 GlucagonR [pM], CRE luciferase reporter gene assay” value (from here on “EC50 GlucagonR [pM]”) with human glucagon receptor [3] is 45 pM. Besides, the “EC50 GLP-1R [pM], CRE luciferase reporter gene assay” value (shortened to “EC50 GLP-1R [pM]”) in the experiment with human GLP-1 receptor [4] is 7 pM.

B2: N^ε34-[(4S)-4-carboxy-4-[[(4S)-4-carboxy-4-[[(4S)-4-carboxy-4-[[(4S)-4-carboxy-4-(17-carboxyheptadecanoylamino)butanoyl]amino]butanoyl]amino]butanoyl]amino]buta … (peptide)
peptide: [Desaminohistidyl][Aib]HGTFTSDVSKYLEEQAAREFIAWLLK([γGlu-γGlu-γGlu-γGlu-C18 diacid])T-NH2
SMILES: CC[C@H](C)[C@H](NC(=O)[C@H](Cc1ccccc1)NC(=O)[C@H](CCC(=O)O)NC(=O)[C@H](CCCNC(=N)N)NC(=O)[C@H](C)NC(=O)[C@H](C)NC(=O)[C@H](CCC(N)=O)NC(=O)[C@H](CCC(=O)O)NC(=O)[C@H](CCC(=O)O)NC(=O)[C@H](CC(C)C)NC(=O)[C@H](Cc1ccc(O)cc1)NC(=O)[C@H](CCCCN)NC(=O)[C@H](CO)NC(=O)[C@@H](NC(=O)[C@H](CC(=O)O)NC(=O)[C@H](CO)NC(=O)[C@@H](NC(=O)[C@H](Cc1ccccc1)NC(=O)[C@@H](NC(=O)CNC(=O)[C@H](Cc1c[nH]cn1)NC(=O)C(C)(C)NC(=O)CCc1c[nH]cn1)[C@@H](C)O)[C@@H](C)O)C(C)C)C(=O)N[C@@H](C)C(=O)N[C@@H](Cc1c[nH]c2ccccc12)C(=O)N[C@@H](CC(C)C)C(=O)N[C@@H](CC(C)C)C(=O)N[C@@H](CCCCNC(=O)CC[C@H](NC(=O)CC[C@H](NC(=O)CC[C@H](NC(=O)CC[C@H](NC(=O)CCCCCCCCCCCCCCCCC(=O)O)C(=O)O)C(=O)O)C(=O)O)C(=O)O)C(=O)N[C@H](C(N)=O)[C@@H](C)O
Take B2: the IC50 (in general, the concentration needed to halve the response being measured) in the experiment with human glucagon receptor [1] amounted to 4.2 nM; in the experiment with human GLP-1 receptor [2], 0.3 nM. Further, the “EC50 GlucagonR [pM]” value in the experiment with human glucagon receptor [3] was determined as 44 pM. For the same molecule, the “EC50 GLP-1R [pM]” value in the experiment with human GLP-1 receptor [4] came to 7 pM.

In the case of [Desaminohistidyl][Aib]HGTFTSDVSKYLEEQAAREFIAWLLK([Ado-Ado-γGlu-γGlu-C18 diacid])T-NH2, the results for the IC50 with human glucagon receptor [1] and in the experiment with human GLP-1 receptor [2] were 4.3 nM and 0.5 nM, respectively. In addition, the “EC50 GlucagonR [pM]” value with human glucagon receptor [3] was 120 pM. Further, the “EC50 GLP-1R [pM]” value in the experiment with human GLP-1 receptor [4] stood at 5.2 pM.

On to [Desaminohistidyl][Ac4c]HGTFTSDVSKYLEEQAAREFIAWLLK([Gly-Ser-Glu-Gly-Ser-γGlu-γGlu-C18 diacid])T-NH2, for which the IC50 with human glucagon receptor [1] was found to be 4.1 nM; in the experiment with human GLP-1 receptor [2], 0.1 nM. Besides, the “EC50 GlucagonR [pM]” value with human glucagon receptor [3] was 40 pM. In addition, the “EC50 GLP-1R [pM]” value with human GLP-1 receptor [4] was 5 pM.
